The record followed here is patent US20170152286A1.

Positions of bridges follow the written chain, without caps; N, C: chain ends. Non-standard residues stand in square brackets, D forms with d. No end group written: not given here. Lys(5-OH) = 5-hydroxyl lysine

For this assay, the target named is MAGUK GK domain. As to the kind of experiment: ITC.

Molecule ARRDEYL[Lys(5-OH)]AIQ-NH2 (lactam 4-8) returned an equilibrium dissociation constant (Kd) of 5.9 µM. In other words, the single-digit micromolar range.
